# Reference: IntAct's records for PubMed 36753016
# Molecular target: ubp18_human USP18 (UniProt Q9UMW8)
# Sequence (Q9UMW8 whole entry): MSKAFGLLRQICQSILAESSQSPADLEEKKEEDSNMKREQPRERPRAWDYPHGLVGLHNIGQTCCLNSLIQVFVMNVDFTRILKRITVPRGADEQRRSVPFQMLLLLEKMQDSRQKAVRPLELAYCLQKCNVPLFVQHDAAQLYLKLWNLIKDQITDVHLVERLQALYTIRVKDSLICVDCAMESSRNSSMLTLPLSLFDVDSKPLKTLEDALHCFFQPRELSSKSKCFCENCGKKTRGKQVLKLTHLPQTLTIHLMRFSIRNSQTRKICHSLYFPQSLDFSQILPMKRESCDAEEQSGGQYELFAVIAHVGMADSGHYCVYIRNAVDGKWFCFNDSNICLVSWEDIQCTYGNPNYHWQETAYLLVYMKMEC
substance,measurement,value
"Signal transducer and activator of transcription 2 (Homo sapiens), P52630 A219V",effect of a mutation on the interaction,decreasing interaction strength
